Earlier results, collected in PMC5012295.

Target: Complement C4b (Homo sapiens) (UniProt P0C0L4)
Assay: AlphaScreen

Chain of UniProt P0C0L4 (P0C0L4 20-675, chain 1 of 2): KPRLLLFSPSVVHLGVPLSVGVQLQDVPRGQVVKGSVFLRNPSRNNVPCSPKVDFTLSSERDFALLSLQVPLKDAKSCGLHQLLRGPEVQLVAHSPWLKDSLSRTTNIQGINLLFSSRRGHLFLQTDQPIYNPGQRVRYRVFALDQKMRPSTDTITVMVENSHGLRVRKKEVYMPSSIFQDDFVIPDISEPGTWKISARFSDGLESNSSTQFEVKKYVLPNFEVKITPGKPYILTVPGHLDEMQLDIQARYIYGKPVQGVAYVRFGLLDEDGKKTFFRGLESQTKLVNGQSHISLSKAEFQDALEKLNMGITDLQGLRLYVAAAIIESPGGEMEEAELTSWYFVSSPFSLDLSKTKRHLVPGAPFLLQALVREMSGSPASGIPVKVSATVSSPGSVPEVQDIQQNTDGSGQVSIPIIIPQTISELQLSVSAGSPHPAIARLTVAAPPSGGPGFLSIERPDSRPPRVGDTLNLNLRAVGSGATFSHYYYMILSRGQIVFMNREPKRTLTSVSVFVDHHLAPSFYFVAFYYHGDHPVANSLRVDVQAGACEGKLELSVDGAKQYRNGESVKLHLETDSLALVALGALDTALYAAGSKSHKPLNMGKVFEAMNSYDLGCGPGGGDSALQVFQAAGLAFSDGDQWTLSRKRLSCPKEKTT
Chain of UniProt P0C0L4 (P0C0L4 20-675, chain 2 of 2): as the sequence (P0C0L4 20-675, chain 1 of 2) above

Question: For Eap (from UniProt Q99QS1), which Kd is on record?
Answer: 185 nM

Question: Which Kd does the source give for Eap34 domains 3-4 (from UniProt Q99QS1) here?
Answer: 525 nM
